Here are results for one protein from article PMC9122495, “Seipin transmembrane segments critically function in triglyceride nucleation and lipid droplet budding from the membrane” (eLife, 2022).

This series concerns the molecule itself. The series can be described thus: cryo-EM structure; LDAF1-FLAG/seipin (1–310) sample in PMAL C8, 25 mM HEPES pH 7.4, 150 mM NaCl, 2 mg/ml, PEGylated with MS(PEG)12; 3D classification without symmetry; one class with the luminal domains used; TM region at low resolution.

B1: seipin (1–310) (domain or fragment, human, UniProt Q96G97 1-310, looked up)
chain: MVNDPPVPALLWAQEVGQVLAGRARRLLLQFGVLFCTILLLLWVSVFLYGSFYYSYMPTVSHLSPVHFYYRTDCDSSTTSLCSFPVANVSLTKGGRDRVLMYGQPYRVTLELELPESPVNQDLGMFLVTISCYTRGGRIISTSSRSVMLHYRSDLLQMLDTLVFSSLLLFGFAEQKQLLEVELYADYRENSYVPTTGAIIEIHSKRIQLYGAYLRIHAHFTGLRYLLYNFPMTCAFIGVASNFTFLSVIVLFSYMQWVWGGIWPRHRFSLQVNIRKRDNSRKEVQRRISAHQPGPEGQEESTPQSDVTED
notes: seipin, human, residues 1-310; No tag is stated for seipin; It was purified through the FLAG tag of co-expressed LDAF1; The sample was treated with MS(PEG)12 methyl-PEG-NHS-ester before cryo-EM; The introduction calls human seipin an undecamer, citing other work; also called human seipin
For B1, the binding result is reported as “binds”.
